Data as given in patent US20220064335A1 (CRISPR THERAPEUTICS, published 2022).

Assays:
[1] = target: T1, anti-CD19 CAR (SEQ ID NO: 8) on CAR T cells; experiment: flow cytometry, % CAR positive cells against antibody dilution on anti-CD19 CAR T cells
T1 construct: also called anti-CD19 CAR T cells
Procedure: (§1) The purified 15C04-02F03 antibody was analyzed by flow cytometry for binding to CAR T cells expressing the anti-BCMA CAR of SEQ ID NO: 6 (anti-BCMA CAR T cells). CAR T cells expressing an anti-CD70 CAR of SEQ ID NO: 7 (anti-CD70 CAR T cells) or an anti-CD19 CAR SEQ ID NO: 8 (anti-CD19 CAR T cells) were used as negative controls. Anti-BCMA-scFv antibody (15C04-02F03) was analyzed at various dilutions (FIG. 2).

[2] = target: T2, anti-CD70 CAR (SEQ ID NO: 7) on CAR T cells; experiment: flow cytometry, % CAR positive cells against antibody dilution on anti-CD70 CAR T cells
T2 construct: also called anti-CD70 CAR T cells
Procedure: as §1

T2 sequence (chain, as listed by the source limits assumed): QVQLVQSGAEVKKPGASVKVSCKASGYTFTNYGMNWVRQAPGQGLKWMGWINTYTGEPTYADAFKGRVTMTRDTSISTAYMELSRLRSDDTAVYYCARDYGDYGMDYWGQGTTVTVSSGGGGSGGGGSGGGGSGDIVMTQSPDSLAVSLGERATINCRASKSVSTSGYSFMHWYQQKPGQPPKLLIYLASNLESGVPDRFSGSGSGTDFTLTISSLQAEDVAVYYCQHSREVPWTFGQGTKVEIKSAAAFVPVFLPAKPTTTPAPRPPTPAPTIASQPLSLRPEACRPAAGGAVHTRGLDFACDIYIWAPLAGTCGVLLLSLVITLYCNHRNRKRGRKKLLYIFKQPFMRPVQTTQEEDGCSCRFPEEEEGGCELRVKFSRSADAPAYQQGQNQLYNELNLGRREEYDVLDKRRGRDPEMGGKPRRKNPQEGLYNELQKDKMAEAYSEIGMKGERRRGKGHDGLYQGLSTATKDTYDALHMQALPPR

- binding result [1]: no binding
- binding result [2]: no binding
B1: mouse anti-BCMA-scFv monoclonal antibody 15C04-02F03 (antibody, mouse IgG1, kappa, V domains shown)
VH: QVQLQQPGAELVKPGTSVKLSCKASAYTFTNYWIHWVKQRPGQGLEWIGRIDPNSGDTKYNEKFKSKASLTVDKPSSTANMQLSSLTSEDSAVYYCTRWGDLHYYAMDYWGQGTSVTVSS
VL: DIVLTQSPASLAVSLGQRATISCQASESVSFTGTSLMHWYQQKPGQPPKLLIYRASNLDSGVPARFSGSGSESDFTLTIDPVEEDDAAVYYCMQSMEDPYTFGGGTKLEIKR
notes: also called Native 15C04-02F03; anti-BCMA-scFv-AJ-1.3-15C04-02F03
